Earlier results in PMC10531495.
Where two headings read alike, the source gives them in different places.

Assays:
[1] = target: Aβ monomer (Homo sapiens) (UniProt P05067)
IAPP (Homo sapiens) [2] = target: IAPP (Homo sapiens) (UniProt P10997)
IAPP (Homo sapiens) [3] = target: IAPP (Homo sapiens) (UniProt P10997); remark: listed apart in the source
IAPP (Homo sapiens) [4] = target: IAPP (Homo sapiens) (UniProt P10997); remark: listed apart in the source
IAPP (Homo sapiens) [5] = target: IAPP (Homo sapiens) (UniProt P10997); remark: listed apart in the source

Sequence of IAPP (Homo sapiens) (P10997 32-73): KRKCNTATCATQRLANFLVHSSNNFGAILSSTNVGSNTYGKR
Sequence of leucine enkephalin (P01210 whole entry, looked up): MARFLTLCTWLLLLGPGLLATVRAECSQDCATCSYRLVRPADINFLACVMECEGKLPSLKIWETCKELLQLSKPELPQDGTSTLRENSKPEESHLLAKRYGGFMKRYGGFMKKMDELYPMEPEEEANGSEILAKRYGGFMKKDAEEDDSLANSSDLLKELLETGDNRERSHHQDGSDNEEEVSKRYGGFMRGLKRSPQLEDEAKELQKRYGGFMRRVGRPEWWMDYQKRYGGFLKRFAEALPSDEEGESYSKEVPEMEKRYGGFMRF

Substance: leucine enkephalin (from UniProt P01210)
- Kd [1]: 60000 nM

Substance: Aβ(25–35) 25-35 (from UniProt P05067)
- Kd (IAPP (Homo sapiens) [2]): 282 nM

Substance: Aβ(29–40) 29-40 (from UniProt P05067)
- Kd (IAPP (Homo sapiens) [3]): 200 nM

Substance: Aβ(35–40) 35-40 (from UniProt P05067)
- Kd (IAPP (Homo sapiens) [4]): 354 nM

Substance: Aβ(1–40) 1-40 (from UniProt P05067)
- Kd (IAPP (Homo sapiens) [5]): 48.5 nM
